Results: patent publication US20200054723A1 (ALLAKOS, published 2020)
Several values for one entry are separate records, joined by “and”; a condition that tells them apart may be missing. Equal entries are not always repeated. Blank lines part the entries; values can stand above or below the binder they belong to.

What was measured:
[1] = molecular target: T1, recombinant human Siglec-8 extracellular domain (ECD) (human, UniProt Q9NYZ4 17-363); assay: ELISA, coated Siglec-8 ECD
T1 construct: extracellular domain; also called Siglec-8 ECD; full Siglec-8 ECD
T1 sequence (Q9NYZ4 17-363): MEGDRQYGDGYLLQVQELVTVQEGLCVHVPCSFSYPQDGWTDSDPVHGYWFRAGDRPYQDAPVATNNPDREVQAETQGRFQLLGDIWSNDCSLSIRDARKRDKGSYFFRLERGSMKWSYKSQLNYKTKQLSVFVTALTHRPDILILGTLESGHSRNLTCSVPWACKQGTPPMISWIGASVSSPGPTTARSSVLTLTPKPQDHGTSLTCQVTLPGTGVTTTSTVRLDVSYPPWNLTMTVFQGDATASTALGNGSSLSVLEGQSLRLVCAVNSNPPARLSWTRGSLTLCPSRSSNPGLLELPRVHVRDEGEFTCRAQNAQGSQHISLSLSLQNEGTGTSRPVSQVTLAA

[2] = molecular target: T2, Siglec-8-Fc tagged protein (human Siglec-8 extracellular domain fused to an immunoglobulin Fc region) (human); assay: BLI (Octet Red 384), Siglec-8-Fc on anti-human capture sensors, Fab in solution
T2 construct: also called Siglec-8 Fc fusion protein
T2 sequence (chain, as listed by the source limits assumed): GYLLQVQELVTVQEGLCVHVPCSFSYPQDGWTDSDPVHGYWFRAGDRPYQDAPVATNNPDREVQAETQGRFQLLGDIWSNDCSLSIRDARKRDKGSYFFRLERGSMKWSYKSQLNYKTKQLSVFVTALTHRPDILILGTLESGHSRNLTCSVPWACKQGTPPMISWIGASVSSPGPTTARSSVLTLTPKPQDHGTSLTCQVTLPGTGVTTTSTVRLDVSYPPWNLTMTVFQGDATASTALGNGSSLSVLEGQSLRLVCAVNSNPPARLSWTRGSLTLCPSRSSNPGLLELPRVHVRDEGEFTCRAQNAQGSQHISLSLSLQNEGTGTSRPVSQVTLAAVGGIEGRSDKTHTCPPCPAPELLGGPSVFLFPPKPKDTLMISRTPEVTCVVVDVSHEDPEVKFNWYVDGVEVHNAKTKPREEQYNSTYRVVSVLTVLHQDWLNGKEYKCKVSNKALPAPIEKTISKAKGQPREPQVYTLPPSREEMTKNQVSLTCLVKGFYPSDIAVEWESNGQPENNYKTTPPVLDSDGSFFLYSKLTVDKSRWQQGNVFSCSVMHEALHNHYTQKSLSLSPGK
Experimental: Antibody affinity determination was also carried out by bio-layer interferometry (ForteBio). Binding of mouse, chimeric and humanized anti-Siglec-8 antibody Fab fragments to human Siglec-8 protein was measured on a ForteBio Octet Red 384. The assay was conducted at 25° C., at an RPM of 1000 in assay buffer. […] Fab fragments (antibodies were digested with Thermo-Pierce immobilized papain per manufacturer's specifications) were diluted in assay buffer from 50 nM to 1.56 nM with 2× dilutions. The Siglec-8-Fc tagged protein was immobilized on Anti-Human-Capture sensors at 100 nM in assay buffer for 3 min to a change in nm of approximately 1.2. Two-minute associations were conducted, followed by 10-minute dissociations. Results were blanked with an empty reference AHC sensor, and analyzed in ForteBio analysis software with 1:1 global fit parameters.

[3] = molecular target: T3, Dimeric Siglec-8 (human Siglec-8 ECD protein) (human, UniProt Q9NYZ4 17-363); assay: SPR (Biacore), antibody captured, dimeric Siglec-8 as analyte, 1:1 global fit (avidity)
T3 construct: extracellular domain; Analyte of the Biacore avidity assay
T3 sequence (Q9NYZ4 17-363): as the sequence (Q9NYZ4 17-363) above
Experimental: Antibody avidity determination was carried out by SPR analysis using a Biacore T200. Binding of human Siglec-8 ECD protein to mouse, chimeric and humanized anti-Siglec-8 antibodies was measured on a […]. The capture antibodies (goat-anti-human-Fc and goat-anti-mouse-Fc from Jackson Immunoresearch) were immobilized on a CM5 chip according to manufacturer's protocol (Biacore, GE). Flow-cell 1, 2 and 3 were immobilized with anti-human, and flow cell 4 with anti-mouse antibodies. The assay was conducted at 25° C., at a flow rate of […]. Assay buffer was 20 mM Tris-HCl pH 8.3, 150 mM Sodium Chloride, 0.05% Polysorbate 20, 10% glycerol, 0.1% BSA, made in ultrapure water. Dimeric Siglec-8 (impurities of monomeric and oligomeric Siglec-8 were removed by size-exclusion chromatography) was diluted in assay buffer from 15 nM to […] with 2× dilutions. Antibodies were captured to a change of approximately 120 RU. Six-minute high performance injections were conducted, followed by 120-minute dissociations. Flow cells were regenerated with 50 mM glycine pH 1.5. Results were double blanked with an empty reference cell and multiple assay buffer injections, and analyzed with 1:1 global fit parameters.

[4] = molecular target: human Siglec-8 on human cells (eosinophils, mast cells) (human, UniProt Q9NYZ4 17-499); assay: cell-based or functional assay
human Siglec-8 on human cells (eosinophils, mast cells), sequence (Q9NYZ4 17-499): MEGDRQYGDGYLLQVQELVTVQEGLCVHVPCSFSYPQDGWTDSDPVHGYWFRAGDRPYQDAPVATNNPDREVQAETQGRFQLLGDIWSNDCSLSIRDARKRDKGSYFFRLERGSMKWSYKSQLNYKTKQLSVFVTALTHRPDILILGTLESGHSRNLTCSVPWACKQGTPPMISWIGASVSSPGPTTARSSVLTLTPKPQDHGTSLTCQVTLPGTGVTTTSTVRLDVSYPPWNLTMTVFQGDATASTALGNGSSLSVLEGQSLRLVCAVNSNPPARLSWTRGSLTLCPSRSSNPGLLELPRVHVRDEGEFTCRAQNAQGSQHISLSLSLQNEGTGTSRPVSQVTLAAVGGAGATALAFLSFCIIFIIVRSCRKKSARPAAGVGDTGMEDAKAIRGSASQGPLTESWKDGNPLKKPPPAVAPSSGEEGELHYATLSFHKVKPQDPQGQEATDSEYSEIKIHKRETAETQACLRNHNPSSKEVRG

EC50 [1]: 31.6 nM
B1: HA2KFmut (antibody, human IgG1, V domains shown)
VH: QVQLQESGPGLVKPSETLSLTCTVSGGSISIYGAHWIRQPPGKGLEWIGVIWAGGSTNYNSALMSRVTISVDTSKNQFSLKLSSVTAADTAVYYCARDGSSPYYYSMEYWGQGTLVTVSS
VL: EIVLTQSPATLSLSPGERATLSCSATSSVSYMHWFQQKPGQAPRLLIYSTSNLASGIPARFSGSGSGTDYTLTISSLEPEDFAVYYCQQRSSYPYTFGPGTKLDIK
notes: human IgG1/kappa

EC50 [1]: 0.027 nM
B2: cVHKB (antibody, human IgG1, V domains shown)
VH: QVQLKESGPGLVAPSQSLSITCTVSGFSLTIYGAHWVRQPPGKGLEWLGVIWAGGSTNYNSALMSRLSISKDNSKSQVFLKINSLQTDDTALYYCARDGSSPYYYSMEYWGQGTSVTVSS
VL: EIILTQSPATLSLSPGERATLSCSATSSVSYMHWFQQKPGQAPRLWIYSTSNLASGVPARFSGSGSGTDYTLTISSLEPEDFAVYYCQQRSSYPFTFGPGTKLDIK
notes: human IgG1/kappa

EC50 [1]: 0.227 nM
B4: HB2KG (antibody, V domains shown)
VH: QVQLQESGPGLVKPSETLSLTCTVSGFSLTIYGAHWVRQPPGKGLEWLGVIWAGGSTNYNSALMSRLSISKDNSKNQVSLKLSSVTAADTAVYYCARDGSSPYYYSMEYWGQGTLVTVSS
VL: EIVLTQSPATLSLSPGERATLSCSATSSVSYMHWYQQKPGQAPRLLIYSTSNLASGIPARFSGSGSGTDFTLTISSLEPEDFAVYYCQQRSSYPFTFGPGTKLDIK
notes: human IgG1/kappa

Kd [2]: 0.536 nM
koff [2]: 0.000612 s⁻¹
kon [2]: 1.14e+06 M⁻¹ s⁻¹
B5: mouse 2E2 Fab fragment (Fab)
VH: QVQLKESGPGLVAPSQSLSITCTVSGFSLTIYGAHWVRQPPGKGLEWLGVIWAGGSTNYNSALMSRLSISKDNSKSQVFLKINSLQTDDTALYYCARDGSSPYYYSMEYWGQGTSVTVSS
light: QIILTQSPAIMSASPGEKVSITCSATSSVSYMHWFQQKPGTSPKLWIYSTSNLASGVPVRFSGSGSGTSYSLTISRMEAEDAATYYCQQRSSYPFTFGSGTKLEIKADAAPTVSIFPPSSEQLTSGGASVVCFLNNFYPKDINVKWKIDGSERQNGVLNSWTDQDSKDSTYSMSSTLTLTKDEYERHNSYTCEATHKTSTSPIVKSFNRNEC
notes: Fab made by papain digestion of the murine IgG1; also called murine 2E2 Fab

Kd [3]: 0.016 nM
koff [3]: 1.32e-05 s⁻¹
kon [3]: 851000 M⁻¹ s⁻¹
EC50 [1]: 0.062 nM and 0.044 nM and 0.043 nM
B6: chimeric 2E2 antibody (antibody, human IgG1, kappa)
heavy: not shown
light: QIILTQSPAIMSASPGEKVSITCSATSSVSYMHWFQQKPGTSPKLWIYSTSNLASGVPVRFSGSGSGTSYSLTISRMEAEDAATYYCQQRSSYPFTFGSGTKLEIKRTVAAPSVFIFPPSDEQLKSGTASVVCLLNNFYPREAKVQWKVDNALQSGNSQESVTEQDSKDSTYSLSSTLTLSKADYEKHKVYACEVTHQGLSSPVTKSFNRGEC
notes: human IgG1/kappa; also called ch2E2; ch2E2 purified

Mean EC50 (ng/ml) for eosinophil depletion [4]: 3.9 ng/mL
B8: HEKA IgG4 antibody (antibody)
heavy: not shown
light: EIVLTQSPATLSLSPGERATLSCSATSSVSYMHWFQQKPGQAPRLLIYSTSNLASGIPARFSGSGSGTDFTLTISSLEPEDFAVYYCQQRSSYPFTFGPGTKLDIKRTVAAPSVFIFPPSDEQLKSGTASVVCLLNNFYPREAKVQWKVDNALQSGNSQESVTEQDSKDSTYSLSSTLTLSKADYEKHKVYACEVTHQGLSSPVTKSFNRGEC

Mean EC50 (ng/ml) for eosinophil depletion [4]: 6.7 ng/mL
Kd [3]: 0.021 nM
koff [3]: 1.4e-05 s⁻¹
kon [3]: 678000 M⁻¹ s⁻¹
EC50 [1]: 0.064 nM and 0.074 nM and 0.052 nM and 0.097 nM
B9: HEKF IgG1 antibody (antibody, V domains shown)
VH: EVQLVESGGGLVQPGGSLRLSCAASGFSLTIYGAHWVRQAPGKGLEWVGVIWAGGSTNYNSALMSRFTISKDNSKNTVYLQMNSLRAEDTAVYYCARDGSSPYYYSMEYWGQGTTVTVSS
VL: EIVLTQSPATLSLSPGERATLSCSATSSVSYMHWFQQKPGQAPRLLIYSTSNLASGIPARFSGSGSGTDYTLTISSLEPEDFAVYYCQQRSSYPFTFGPGTKLDIKR
notes: also called HEKF T2

Mean EC50 (ng/ml) for eosinophil depletion [4]: 6.9 ng/mL
EC50 [1]: 0.072 nM
B13: HEKFmut (antibody, human IgG1, V domains shown)
VH: EVQLVESGGGLVQPGGSLRLSCAASGFSLTIYGAHWVRQAPGKGLEWVGVIWAGGSTNYNSALMSRFTISKDNSKNTVYLQMNSLRAEDTAVYYCARDGSSPYYYSMEYWGQGTTVTVSS
VL: EIVLTQSPATLSLSPGERATLSCSATSSVSYMHWFQQKPGQAPRLLIYSTSNLASGIPARFSGSGSGTDYTLTISSLEPEDFAVYYCQQRSSYPYTFGPGTKLDIK
notes: human IgG1/kappa; also called HEKFmut IgG1

The remaining lines, values behind:

B3: HB2KC (antibody, human IgG1, V domains shown)
VH: QVQLQESGPGLVKPSETLSLTCTVSGFSLTIYGAHWVRQPPGKGLEWLGVIWAGGSTNYNSALMSRLSISKDNSKNQVSLKLSSVTAADTAVYYCARDGSSPYYYSMEYWGQGTLVTVSS
VL: EIILTQSPATLSLSPGERATLSCSATSSVSYMHWFQQKPGQAPRLLIYSTSNLASGIPARFSGSGSGTDFTLTISSLEPEDFAVYYCQQRSSYPFTFGPGTKLDIK
notes: human IgG1/kappa
EC50 [1]: 0.101 nM

B7: chimeric 2E2 Fab fragment (Fab)
VH: QVQLKESGPGLVAPSQSLSITCTVSGFSLTIYGAHWVRQPPGKGLEWLGVIWAGGSTNYNSALMSRLSISKDNSKSQVFLKINSLQTDDTALYYCARDGSSPYYYSMEYWGQGTSVTVSS
light: QIILTQSPAIMSASPGEKVSITCSATSSVSYMHWFQQKPGTSPKLWIYSTSNLASGVPVRFSGSGSGTSYSLTISRMEAEDAATYYCQQRSSYPFTFGSGTKLEIKRTVAAPSVFIFPPSDEQLKSGTASVVCLLNNFYPREAKVQWKVDNALQSGNSQESVTEQDSKDSTYSLSSTLTLSKADYEKHKVYACEVTHQGLSSPVTKSFNRGEC
notes: Fab made by papain digestion of the human IgG1 chimeric antibody
Kd [2]: 0.585 nM
koff [2]: 0.000556 s⁻¹
kon [2]: 951000 M⁻¹ s⁻¹

B10: HEKA Fab fragment (Fab)
VH: EVQLVESGGGLVQPGGSLRLSCAASGFSLTIYGAHWVRQAPGKGLEWVGVIWAGGSTNYNSALMSRFTISKDNSKNTVYLQMNSLRAEDTAVYYCARDGSSPYYYSMEYWGQGTTVTVSS
light: EIVLTQSPATLSLSPGERATLSCSATSSVSYMHWFQQKPGQAPRLLIYSTSNLASGIPARFSGSGSGTDFTLTISSLEPEDFAVYYCQQRSSYPFTFGPGTKLDIKRTVAAPSVFIFPPSDEQLKSGTASVVCLLNNFYPREAKVQWKVDNALQSGNSQESVTEQDSKDSTYSLSSTLTLSKADYEKHKVYACEVTHQGLSSPVTKSFNRGEC
notes: Fab made by papain digestion
Kd [2]: 0.464 nM
koff [2]: 0.000482 s⁻¹
kon [2]: 1.04e+06 M⁻¹ s⁻¹

B11: HBcVK (antibody, human IgG1, V domains shown)
VH: EVQLVESGGGLVQPGGSLRLSCAVSGFSLTIYGAHWVRQAPGKGLEWLGVIWAGGSTNYNSALMSRLSISKDNSKNTVYLQMNSLRAEDTAVYYCARDGSSPYYYSMEYWGQGTTVTVSS
VL: QIILTQSPAIMSASPGEKVSITCSATSSVSYMHWFQQKPGTSPKLWIYSTSNLASGVPVRFSGSGSGTSYSLTISRMEAEDAATYYCQQRSSYPFTFGSGTKLEIK
notes: human IgG1/kappa
EC50 [1]: 0.066 nM

B12: HEKF Fab fragment (Fab)
VH: EVQLVESGGGLVQPGGSLRLSCAASGFSLTIYGAHWVRQAPGKGLEWVGVIWAGGSTNYNSALMSRFTISKDNSKNTVYLQMNSLRAEDTAVYYCARDGSSPYYYSMEYWGQGTTVTVSS
light: EIVLTQSPATLSLSPGERATLSCSATSSVSYMHWFQQKPGQAPRLLIYSTSNLASGIPARFSGSGSGTDYTLTISSLEPEDFAVYYCQQRSSYPFTFGPGTKLDIKRTVAAPSVFIFPPSDEQLKSGTASVVCLLNNFYPREAKVQWKVDNALQSGNSQESVTEQDSKDSTYSLSSTLTLSKADYEKHKVYACEVTHQGLSSPVTKSFNRGEC
notes: Fab made by papain digestion
Kd [2]: 0.592 nM
koff [2]: 0.000545 s⁻¹
kon [2]: 920000 M⁻¹ s⁻¹

B14: HAcVK (antibody, human IgG1, V domains shown)
VH: EVQLVESGGGLVQPGGSLRLSCAASGFSLTIYGAHWVRQAPGKGLEWVSVIWAGGSTNYNSALMSRFTISKDNSKNTVYLQMNSLRAEDTAVYYCARDGSSPYYYSMEYWGQGTTVTVSS
VL: QIILTQSPAIMSASPGEKVSITCSATSSVSYMHWFQQKPGTSPKLWIYSTSNLASGVPVRFSGSGSGTSYSLTISRMEAEDAATYYCQQRSSYPFTFGSGTKLEIK
notes: human IgG1/kappa
EC50 [1]: 0.067 nM

B15: HEKAmut IgG1 antibody (antibody, V domains shown)
VH: EVQLVESGGGLVQPGGSLRLSCAASGFSLTIYGAHWVRQAPGKGLEWVGVIWAGGSTNYNSALMSRFTISKDNSKNTVYLQMNSLRAEDTAVYYCARDGSSPYYYSMEYWGQGTTVTVSS
VL: EIVLTQSPATLSLSPGERATLSCSATSSVSYMHWFQQKPGQAPRLLIYSTSNLASGIPARFSGSGSGTDFTLTISSLEPEDFAVYYCQQRSSYPYTFGPGTKLDIK
Mean EC50 (ng/ml) for eosinophil depletion [4]: 43.3 ng/mL
